Test results: PMC6128619, “Allosteric Activation Shifts the Rate-Limiting Step in a Short-Form ATP Phosphoribosyltransferase” (Biochemistry, 2018)
Where two headings read alike, the source gives them in different places.

T1: PaHisGS (short-form ATP phosphoribosyltransferase catalytic subunit) (Psychrobacter arcticus, UniProt Q4FQF7)
T1 construct: gene hisG
T1 sequence (Q4FQF7 1-231): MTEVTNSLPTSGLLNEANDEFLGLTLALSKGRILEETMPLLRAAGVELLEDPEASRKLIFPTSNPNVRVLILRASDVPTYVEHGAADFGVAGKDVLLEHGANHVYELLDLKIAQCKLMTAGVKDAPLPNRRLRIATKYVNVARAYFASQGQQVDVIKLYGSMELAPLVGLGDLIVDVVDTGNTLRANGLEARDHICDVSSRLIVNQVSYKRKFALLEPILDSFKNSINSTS

B1: PaATPPRT (Psychrobacter arcticus 273-4) (protein)
chain: T1 sequence (Q4FQF7 1-231)
notes: hetero-octamer of four HisGS and four HisZ
B2: PaHisGS (short-form ATP phosphoribosyltransferase catalytic subunit) (Psychrobacter arcticus 273-4) (protein)
chain: T1 sequence (Q4FQF7 1-231)

What was measured:
[1] = target: T1, PaHisGS (short-form ATP phosphoribosyltransferase catalytic subunit); assay: steady-state inhibition kinetics, absorbance at […] nm (IC50 […]; Ki […] vs PRPP, […] vs ATP); format: biochemical
[2] = target: T1, PaHisGS (short-form ATP phosphoribosyltransferase catalytic subunit); assay: ITC (single-site model, […]); DSF Tm shift +[…] °C; format: binding
[3] = target: T1, PaHisGS (short-form ATP phosphoribosyltransferase catalytic subunit); assay: steady-state kinetics, initial velocity patterns, […] NMR of turnover (no ITC or DSF signal without PRPP); format: biochemical
[4] = target: T1, PaHisGS (short-form ATP phosphoribosyltransferase catalytic subunit); assay: […] NMR of product formation and steady-state kinetics (alternative substrate, with PRPP); format: biochemical
[5] = substrate: O=P(O)(O)OC[C@H]1O[C@H](OP(=O)(O)OP(=O)(O)O)[C@H](O)[C@@H]1O; assay: purified protein, by the assay type; design: steady-state substrate saturation kinetics with Mg2+, Michaelis-Menten fit
Description: (§1) Replacement of Mg^2+ by Mn^2+ is a common strategy in enzymology,[36] having been employed to uncover rate-limiting steps in reactions involving stabilization of phosphate groups.[37] HisGL ATPPRTs have been reported to have their activities either unaltered or decreased by changing the divalent metal in the reaction from the physiological Mg^2+ to Mn^2+, but no mechanistic inference has been drawn.[17],[38] […] Mn^2+ led to 2.6- and 11-fold increases in PaHisGSkcat and kcat/KM^ATP, respectively, as compared with Mg^2+. The change in kcat/KM^ATP was driven in large part by a reduction in KM^ATP. LC-MS analysis of the PaHisGS reaction with Mn^2+ confirmed the same product, PRATP, was being formed (Figure S5).  Figure 5 Steady-state kinetics with Mg^2+ (green) and Mn^2+ (blue). Saturation curves varying either PRPP or ATP concentration with saturating concentration of the cosubstrate for (A and B) PaHisGS and (C and D) PaATPPRT. Data points are mean ± SE, and lines are data fitting to eq 3. Kinetic and DSF data were analyzed by the nonlinear regression function of SigmaPlot 13 (SPSS Inc.). Data points and error bars in graphs are represented as mean ± standard error, and kinetic and equilibrium constants are presented as mean ± fitting error. Initial rate data with varying concentrations of PaHisZ were fitted to eq 1. The concentration of PaATPPRT at any concentration of PaHisGS and PaHisZ was calculated according to eq 2. Substrate saturation data were fitted to eq 3. Inhibition data at fixed substrate concentrations were fitted to eq 4, and competitive inhibition data were fitted to eq 5. Initial velocity patterns were fitted to eq 6, and pre-steady-state kinetics under multiple-turnover conditions was fitted to eq 7. In eqs 1–7, v is the initial rate, Vmax is the maximal velocity, G is the concentration of PaHisGS, Z is the concentration of PaHisZ, KD is the equilibrium dissociation constant, PaATPPRT is the concentration of PaHisGS-PaHisZ complex, S is the concentration of the varying substrate, kcat is the steady-state turnover number, KM is the apparent Michaelis constant, ET is total enzyme concentration, vi is the initial rate in the presence of inhibitor, IC50 is the half-maximal inhibitory concentration, Ki is the inhibitor dissociation constant, A and B are the first and second substrates to bind to the enzyme, respectively, Ka and Kb are their respective Michaelis constants, Kia is the apparent dissociation constant for the complex between enzyme and substrate A when the concentration of B approaches zero, t is time, P(t) is product concentration at time t, A0 is the amplitude of the burst phase, and kburst is the first-order rate constant of product formation in the burst phase. DSF thermal denaturation data were fitted to eq 8,[32] where FU is fraction unfolded, T is the temperature in °C, Tm is the melting temperature, c is the slope of the transition region, and LL and UL are folded and unfolded baselines, respectively. [drawing 1] 1 [drawing 2] 2 [drawing 3] 3 [drawing 4] 4 [drawing 5] 5 [drawing 6] 6 [drawing 7] 7 [drawing 8] 8

[6] = substrate: Nc1ncnc2c1ncn2[C@@H]1O[C@H](COP(=O)(O)OP(=O)(O)OP(=O)(O)O)[C@@H](O)[C@H]1O; assay: purified protein, by the assay type; design: steady-state substrate saturation kinetics with Mg2+, Michaelis-Menten fit
Description: as §1

[7] = substrate: O=P(O)(O)OC[C@H]1O[C@H](OP(=O)(O)OP(=O)(O)O)[C@H](O)[C@@H]1O; assay: purified protein, by the assay type; design: steady-state kinetics, spectrophotometric PRATP formation, substrate saturation fitted for KM
Protocol: as §1, with “For a quantitative comparison of the reactions with ATP and ADP, steady-state kinetic analysis of the reaction with either substrate was carried out (Figure 4) and kinetic parameters are summarized in Table S3. […] Replacement” for “Replacement”, “S5).” for “S5).  Figure 5 Steady-state kinetics with Mg^2+ (green) and Mn^2+ (blue). Saturation curves varying either PRPP or ATP concentration with saturating concentration of the cosubstrate for (A and B) PaHisGS and (C and D) PaATPPRT. Data points are mean ± SE, and lines are data fitting to eq 3.”

[8] = substrate: Nc1ncnc2c1ncn2[C@@H]1O[C@H](COP(=O)(O)OP(=O)(O)OP(=O)(O)O)[C@@H](O)[C@H]1O; assay: purified protein, by the assay type; design: steady-state kinetics, spectrophotometric PRATP formation, substrate saturation fitted for KM
Protocol: as §1, with “For a quantitative comparison of the reactions with ATP and ADP, steady-state kinetic analysis of the reaction with either substrate was carried out (Figure 4) and kinetic parameters are summarized in Table S3. […] Replacement” for “Replacement”, “S5).” for “S5).  Figure 5 Steady-state kinetics with Mg^2+ (green) and Mn^2+ (blue). Saturation curves varying either PRPP or ATP concentration with saturating concentration of the cosubstrate for (A and B) PaHisGS and (C and D) PaATPPRT. Data points are mean ± SE, and lines are data fitting to eq 3.”

Molecule | Km [7] [µM] | kcat [7] [s⁻¹] | kcat/Km [7] [M⁻¹ s⁻¹] | Km [8] [µM] | kcat [8] [s⁻¹] | kcat/Km [8] [M⁻¹ s⁻¹] | further results
Nc1ncnc2c1ncn2[C@@H]1O[C@H](COP(=O)(O)O)[C@@H](O)[C@H]1O [AMP] |  |  |  |  |  |  | Ki [1]: 25 ± 5 µM
O=P(O)(O)OC[C@H]1O[C@H](OP(=O)(O)OP(=O)(O)O)[C@H](O)[C@@H]1O [PRPP] |  |  |  |  |  |  | Kd [2]: 12 ± 2 µM
Nc1ncnc2c1ncn2[C@@H]1O[C@H](COP(=O)(O)OP(=O)(O)OP(=O)(O)O)[C@@H](O)[C@H]1O [ATP] |  |  |  |  |  |  | steady-state kinetics, initial velocity patterns, 31P NMR of turnover (no ITC or) [3]: once saturated PaHisGS turns over ATP and ADP just as effectively
Nc1ncnc2c1ncn2[C@@H]1O[C@H](COP(=O)(O)OP(=O)(O)O)[C@@H](O)[C@H]1O [ADP] |  |  |  |  |  |  | 31P NMR of product formation and steady-state kinetics (alternative substrate, w) [4]: establishing that ADP can replace ATP as a substrate for PaHisGS
B1 | 280 ± 60 | 2.1 ± 0.1 | 7500 ± 2000 | 190 ± 30 | 2.1 ± 0.1 | 11100 ± 2000 | Km [5]: 430 ± 60 µM; kcat [5]: 2.7 ± 0.1 s⁻¹; kcat/Km [5]: 6000 ± 900 M⁻¹ s⁻¹; Km [6]: 720 ± 90 µM; kcat [6]: 2.7 ± 0.1 s⁻¹; kcat/Km [6]: 3800 ± 500 M⁻¹ s⁻¹
B2 | 600 ± 200 | 0.39 ± 0.05 | 700 ± 200 | 300 ± 50 | 0.39 ± 0.05 | 1300 | 
